B1: Chromo domain-containing protein rhino (Drosophila melanogaster (Fruit fly)), Q7JXA8 (parent)
chain: MSRNHQRPNLGLVDAPPNDHVEEYVVEKILGKRFVNGRPQVLVKWSGFPNENNTWEPLENVGNCMKLVSDFESEVFRLHRKAAAKSVGKSKSSPSSSGPLITENGPSSSKKTQQHSKSVQAKNTAGMSKMNQKKGKNIKKTAGKIKDIENYPKTQMPSTSQVSTDSTEVFDGNPSATTTNMIKSPRIQSLFSDLNLIEPTKDKDVGDTSLKTPPKSRRLIEFPQREDAPLSSKHVSPMLIRKESQPLQSSCTDDSDLGESSSSMSLPTVSSTSSEKSIKVTKSEPKTLGQIKFSSRSSDGGHAASSLGAPKEGDIGLDLSGSDSMDSEVESMRRCPRRKRKKTYPDWKFPEMTKPFGVNRGLDLDKILHCYQMNDDLFMFVTWKGCSSIDAVHINDIKEAYPLQIIKYFESLRIIVPK

Variants of: B1
Details: with h31_human H3C1, P68431

Variant	effect of a mutation on the interaction
MSRNHQRPNLGLVDAPPNDHVEEYVVEKILGKRFVNGRPQVLVKWSGAPNENNTWEPLENVGNCMKLVSDFESEVFRLHRKAAAKSVGKSKSSPSSSGPLITENGPSSSKKTQQHSKSVQAKNTAGMSKMNQKKGKNIKKTAGKIKDIENYPKTQMPSTSQVSTDSTEVFDGNPSATTTNMIKSPRIQSLFSDLNLIEPTKDKDVGDTSLKTPPKSRRLIEFPQREDAPLSSKHVSPMLIRKESQPLQSSCTDDSDLGESSSSMSLPTVSSTSSEKSIKVTKSEPKTLGQIKFSSRSSDGGHAASSLGAPKEGDIGLDLSGSDSMDSEVESMRRCPRRKRKKTYPDWKFPEMTKPFGVNRGLDLDKILHCYQMNDDLFMFVTWKGCSSIDAVHINDIKEAYPLQIIKYFESLRIIVPK [F48A]	disrupting interaction
MSRNHQRPNLGLVDAPPNDHVEEYVVEKILGKRFVNGRPQVLVKASGFPNENNTWEPLENVGNCMKLVSDFESEVFRLHRKAAAKSVGKSKSSPSSSGPLITENGPSSSKKTQQHSKSVQAKNTAGMSKMNQKKGKNIKKTAGKIKDIENYPKTQMPSTSQVSTDSTEVFDGNPSATTTNMIKSPRIQSLFSDLNLIEPTKDKDVGDTSLKTPPKSRRLIEFPQREDAPLSSKHVSPMLIRKESQPLQSSCTDDSDLGESSSSMSLPTVSSTSSEKSIKVTKSEPKTLGQIKFSSRSSDGGHAASSLGAPKEGDIGLDLSGSDSMDSEVESMRRCPRRKRKKTYPDWKFPEMTKPFGVNRGLDLDKILHCYQMNDDLFMFVTWKGCSSIDAVHINDIKEAYPLQIIKYFESLRIIVPK [W45A]	disrupting interaction
MSRNHQRPNLGLVDAPPNDHVEEYVVEKILGKRAVNGRPQVLVKWSGFPNENNTWEPLENVGNCMKLVSDFESEVARLHRKAAAKSVGKSKSSPSSSGPLITENGPSSSKKTQQHSKSVQAKNTAGMSKMNQKKGKNIKKTAGKIKDIENYPKTQMPSTSQVSTDSTEVFDGNPSATTTNMIKSPRIQSLFSDLNLIEPTKDKDVGDTSLKTPPKSRRLIEFPQREDAPLSSKHVSPMLIRKESQPLQSSCTDDSDLGESSSSMSLPTVSSTSSEKSIKVTKSEPKTLGQIKFSSRSSDGGHAASSLGAPKEGDIGLDLSGSDSMDSEVESMRRCPRRKRKKTYPDWKFPEMTKPFGVNRGLDLDKILHCYQMNDDLFMFVTWKGCSSIDAVHINDIKEAYPLQIIKYFESLRIIVPK [F34A;F76A]	decreasing interaction strength

Source: IntAct's records for PubMed 25613572
